Laboratory results as given in paper PMC6056499, “A systematic dissection of sequence elements determining β-Klotho and FGF interaction and signaling” (Scientific Reports, 2018).

T1: human β-Klotho extracellular domain (aa1–992) fused with a 6 × His tag at the C-terminus (human, UniProt Q86Z14 1-992, biotin (EZ-Link Sulfo-NHS-LC-Biotin) in the bio-layer interferometry)
T1 construct: signal peptide in the construct; human β-Klotho extracellular domain, aa1–992 of the full-length protein aa1-1044 (NM_175737); also called β-Klotho ECD 6 × His; soluble human β-Klotho; source: CHO-EBNA1, transiently transfected, conditioned medium; not shown: His6, C-terminal, kept
T1 sequence (looked up): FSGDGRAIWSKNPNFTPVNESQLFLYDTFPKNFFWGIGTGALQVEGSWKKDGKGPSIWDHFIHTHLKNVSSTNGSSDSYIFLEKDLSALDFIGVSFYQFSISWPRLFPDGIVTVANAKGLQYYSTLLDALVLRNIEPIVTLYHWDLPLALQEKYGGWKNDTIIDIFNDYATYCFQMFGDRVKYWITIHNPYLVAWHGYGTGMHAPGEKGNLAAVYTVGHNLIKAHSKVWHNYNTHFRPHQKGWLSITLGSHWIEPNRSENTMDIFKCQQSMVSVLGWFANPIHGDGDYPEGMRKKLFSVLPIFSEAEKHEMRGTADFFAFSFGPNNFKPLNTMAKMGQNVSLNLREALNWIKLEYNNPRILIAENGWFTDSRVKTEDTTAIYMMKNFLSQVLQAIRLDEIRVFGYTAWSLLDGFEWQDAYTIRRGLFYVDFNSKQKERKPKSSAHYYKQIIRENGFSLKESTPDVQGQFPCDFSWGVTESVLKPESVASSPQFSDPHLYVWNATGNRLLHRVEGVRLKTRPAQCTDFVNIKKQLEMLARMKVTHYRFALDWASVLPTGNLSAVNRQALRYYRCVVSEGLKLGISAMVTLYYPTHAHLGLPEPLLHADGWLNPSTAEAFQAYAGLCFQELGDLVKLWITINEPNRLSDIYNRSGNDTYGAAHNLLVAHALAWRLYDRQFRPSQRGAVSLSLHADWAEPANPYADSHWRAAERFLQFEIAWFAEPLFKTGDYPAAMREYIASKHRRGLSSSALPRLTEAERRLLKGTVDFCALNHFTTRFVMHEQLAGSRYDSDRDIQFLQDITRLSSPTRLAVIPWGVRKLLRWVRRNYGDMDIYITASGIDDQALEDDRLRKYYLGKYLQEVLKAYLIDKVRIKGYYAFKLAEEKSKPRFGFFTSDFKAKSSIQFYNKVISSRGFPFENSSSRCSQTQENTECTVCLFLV


How the values were obtained:
[1] = target: T1, human β-Klotho extracellular domain …; test: ELISA; solid-phase binding assay: β-Klotho (500 ng/mL) captured from CHO-EBNA1 conditioned media by plate-coated mouse anti-human β-Klotho antibody; biotinylated FGF21 titrated, 1.5 h room temperature; streptavidin-HRP; three-parameter logistic fit; details: one partner purified
[2] = target: T1, human β-Klotho extracellular domain …; test: BLI; Octet RED; biotinylated β-Klotho ECD 6×His (10 µg/mL) loaded on streptavidin biosensors; FGF21 or Fc-FGF21 associated 5 min, dissociated 5 min in kinetics buffer; 1:1 binding model; details: both partners purified
[3] = target: T1, human β-Klotho extracellular domain …; test: ELISA; solid-phase binding assay: WT β-Klotho captured from CHO-EBNA1 conditioned media by plate-coated anti-β-Klotho antibody; purified Fc-FGF21 titrated, 1.5 h room temperature; detected with anti-human IgG Fc-HRP; details: one partner purified

Binder | fold increase in EC50 compared to WT [3] | further results
mature human FGF21 (ligand, UniProt Q9NSA1 29-209, looked up, biotin (EZ-Link Sulfo-NHS-LC-Biotin) in the solid-phase binding assay; biotinylated as the labelled ligand in AlphaScreen, human FGF21, mature protein; also called native FGF21) HPIPDSSPLLQFGGQVRQRYLYTDDAQQTEAHLEIREDGTVGGAADQSPESLLQLKALKPGVIQILGVKTSRFLCQRPDGALYGSLHFDPEACSFRELLLEDGYNVYQSEAHGLPLHLPGNKSPHRDPAPRGPARFLPLPGLPPALPEPPGILAPQPPDVGSSDPLSMVGPSQGRSPSYAS |  | EC50 [1]: 3.98 nM
mature human FGF21 polypeptide fused with the human Fc fragment at the N-terminus (Fc-FGF21), wild type (Fc fusion, UniProt Q9NSA1 29-209, looked up, human FGF21, mature polypeptide (NM_019113); also called WT Fc-FGF21; source: HEK293-EBNA1, transiently transfected, purified (protein A, MabSelect SuRe); not shown: Fc (human), N-terminal, kept) HPIPDSSPLLQFGGQVRQRYLYTDDAQQTEAHLEIREDGTVGGAADQSPESLLQLKALKPGVIQILGVKTSRFLCQRPDGALYGSLHFDPEACSFRELLLEDGYNVYQSEAHGLPLHLPGNKSPHRDPAPRGPARFLPLPGLPPALPEPPGILAPQPPDVGSSDPLSMVGPSQGRSPSYAS |  | fold increase in affinity over native FGF21 [2]: 4 fold
Fc-FGF21, 194L to alanine (Fc fusion, human, UniProt Q9NSA1 29-209, looked up, human FGF21, mature polypeptide (NM_019113); also called L194A; source: HEK293-EBNA1, transiently transfected, purified (protein A); not shown: Fc (human), N-terminal, kept) HPIPDSSPLLQFGGQVRQRYLYTDDAQQTEAHLEIREDGTVGGAADQSPESLLQLKALKPGVIQILGVKTSRFLCQRPDGALYGSLHFDPEACSFRELLLEDGYNVYQSEAHGLPLHLPGNKSPHRDPAPRGPARFLPLPGLPPALPEPPGILAPQPPDVGSSDPASMVGPSQGRSPSYAS | > 100 fold | 
Fc-FGF21, 196M to arginine (Fc fusion, human, UniProt Q9NSA1 29-209, looked up, human FGF21, mature polypeptide (NM_019113); also called M196R; source: HEK293-EBNA1, transiently transfected, purified (protein A); not shown: Fc (human), N-terminal, kept) HPIPDSSPLLQFGGQVRQRYLYTDDAQQTEAHLEIREDGTVGGAADQSPESLLQLKALKPGVIQILGVKTSRFLCQRPDGALYGSLHFDPEACSFRELLLEDGYNVYQSEAHGLPLHLPGNKSPHRDPAPRGPARFLPLPGLPPALPEPPGILAPQPPDVGSSDPLSRVGPSQGRSPSYAS | > 100 fold | 
Fc-FGF21, 196M to alanine (Fc fusion, human, UniProt Q9NSA1 29-209, looked up, human FGF21, mature polypeptide (NM_019113); also called M196A; source: HEK293-EBNA1, transiently transfected, purified (protein A); not shown: Fc (human), N-terminal, kept) HPIPDSSPLLQFGGQVRQRYLYTDDAQQTEAHLEIREDGTVGGAADQSPESLLQLKALKPGVIQILGVKTSRFLCQRPDGALYGSLHFDPEACSFRELLLEDGYNVYQSEAHGLPLHLPGNKSPHRDPAPRGPARFLPLPGLPPALPEPPGILAPQPPDVGSSDPLSAVGPSQGRSPSYAS | > 100 fold | 
Fc-FGF21, 193P to alanine (Fc fusion, human, UniProt Q9NSA1 29-209, looked up, human FGF21, mature polypeptide (NM_019113); also called P193A; source: HEK293-EBNA1, transiently transfected, purified (protein A); not shown: Fc (human), N-terminal, kept) HPIPDSSPLLQFGGQVRQRYLYTDDAQQTEAHLEIREDGTVGGAADQSPESLLQLKALKPGVIQILGVKTSRFLCQRPDGALYGSLHFDPEACSFRELLLEDGYNVYQSEAHGLPLHLPGNKSPHRDPAPRGPARFLPLPGLPPALPEPPGILAPQPPDVGSSDALSMVGPSQGRSPSYAS | > 100 fold | 
Fc-FGF21, 192D to arginine (Fc fusion, human, UniProt Q9NSA1 29-209, looked up, human FGF21, mature polypeptide (NM_019113); also called D192R; source: HEK293-EBNA1, transiently transfected, purified (protein A); not shown: Fc (human), N-terminal, kept) HPIPDSSPLLQFGGQVRQRYLYTDDAQQTEAHLEIREDGTVGGAADQSPESLLQLKALKPGVIQILGVKTSRFLCQRPDGALYGSLHFDPEACSFRELLLEDGYNVYQSEAHGLPLHLPGNKSPHRDPAPRGPARFLPLPGLPPALPEPPGILAPQPPDVGSSRPLSMVGPSQGRSPSYAS | > 100 fold | 
Fc-FGF21, 192D to alanine (Fc fusion, human, UniProt Q9NSA1 29-209, looked up, human FGF21, mature polypeptide (NM_019113); also called D192A; source: HEK293-EBNA1, transiently transfected, purified (protein A); not shown: Fc (human), N-terminal, kept) HPIPDSSPLLQFGGQVRQRYLYTDDAQQTEAHLEIREDGTVGGAADQSPESLLQLKALKPGVIQILGVKTSRFLCQRPDGALYGSLHFDPEACSFRELLLEDGYNVYQSEAHGLPLHLPGNKSPHRDPAPRGPARFLPLPGLPPALPEPPGILAPQPPDVGSSAPLSMVGPSQGRSPSYAS | > 100 fold | 
Fc-FGF21, 193P to arginine (Fc fusion, human, UniProt Q9NSA1 29-209, looked up, human FGF21, mature polypeptide (NM_019113); also called P193R; source: HEK293-EBNA1, transiently transfected, purified (protein A); not shown: Fc (human), N-terminal, kept) HPIPDSSPLLQFGGQVRQRYLYTDDAQQTEAHLEIREDGTVGGAADQSPESLLQLKALKPGVIQILGVKTSRFLCQRPDGALYGSLHFDPEACSFRELLLEDGYNVYQSEAHGLPLHLPGNKSPHRDPAPRGPARFLPLPGLPPALPEPPGILAPQPPDVGSSDRLSMVGPSQGRSPSYAS | > 100 fold | 
Fc-FGF21, 194L to arginine (Fc fusion, human, UniProt Q9NSA1 29-209, looked up, human FGF21, mature polypeptide (NM_019113); also called L194R; source: HEK293-EBNA1, transiently transfected, purified (protein A); not shown: Fc (human), N-terminal, kept) HPIPDSSPLLQFGGQVRQRYLYTDDAQQTEAHLEIREDGTVGGAADQSPESLLQLKALKPGVIQILGVKTSRFLCQRPDGALYGSLHFDPEACSFRELLLEDGYNVYQSEAHGLPLHLPGNKSPHRDPAPRGPARFLPLPGLPPALPEPPGILAPQPPDVGSSDPRSMVGPSQGRSPSYAS | > 100 fold | 
